Residue numbers refer to the chain shown, from its start. Numbers in names are those of the source. Like-named read-outs stand apart in the source and are kept apart here. Blank lines part the entries; values can stand above or below the molecule they belong to.
What was measured:
[1] = molecular target: ALX4 homeodomain protein (amino acids 209-274) (human) (UniProt Q9H161); assay: native gel or EMSA
[2] = molecular target: PHOX2B Q46K homeodomain protein (human); assay: native gel or EMSA
[3] = molecular target: PITX3 homeodomain protein (66 amino acid region) (human); assay: native gel or EMSA
[4] = molecular target: PHOX2B Q46R homeodomain protein (human); assay: native gel or EMSA
[5] = molecular target: OTP homeodomain protein (amino acids 99-164) (human) (UniProt Q5XKR4); assay: native gel or EMSA
CRX HD [6] = molecular target: T1, CRX HD (Homo sapiens, UniProt O43186 34-99); assay: EMSA
CRX HD K50Q [7] = molecular target: T2, CRX HD K50Q (Homo sapiens, UniProt O43186 34-99, K88Q); assay: EMSA
CRX HD E4N;K50Q [8] = molecular target: T3, CRX HD E4N;K50Q (Homo sapiens, UniProt O43186 34-99, E42N;K88Q); assay: EMSA
CRX HD R2Q [9] = molecular target: T4, CRX HD R2Q (Homo sapiens, UniProt O43186 34-99, R40Q); assay: EMSA
CRX HD R3Q = CRX HD R3Q (Homo sapiens, UniProt O43186 34-99, R41Q); assay: EMSA
CRX HD E4K = CRX HD E4K (Homo sapiens, UniProt O43186 34-99, E42K); assay: EMSA
CRX HD R2Q [10] = molecular target: T4, CRX HD R2Q; assay: EMSA; remark: listed apart in the source
CRX HD E4N = CRX HD E4N (Homo sapiens, UniProt O43186 34-99, E42N); assay: EMSA
CRX HD [11] = molecular target: T1, CRX HD; assay: EMSA; remark: listed apart in the source
CRX HD K50Q [12] = molecular target: T2, CRX HD K50Q; assay: EMSA; remark: listed apart in the source
CRX HD E4N;K50Q [13] = molecular target: T3, CRX HD E4N;K50Q; assay: EMSA; remark: listed apart in the source
ARX HD P26L = ARX HD P26L (Mus musculus, UniProt O35085 326-390, P355L); assay: EMSA
PHOX2B HD R44G = PHOX2B HD R44G (Homo sapiens, UniProt Q99453 94-158, R141G); assay: EMSA
Chain of PHOX2B HD R44G (Q99453 94-158 R141G): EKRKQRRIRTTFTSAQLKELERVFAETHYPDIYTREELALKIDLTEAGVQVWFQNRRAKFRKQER

T2 sequence (O43186 34-99 K88Q): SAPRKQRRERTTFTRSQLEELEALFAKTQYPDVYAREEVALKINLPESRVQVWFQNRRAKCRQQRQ
T3 sequence (O43186 34-99 E42N/K88Q): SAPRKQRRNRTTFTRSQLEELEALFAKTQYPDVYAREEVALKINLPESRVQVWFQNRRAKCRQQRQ
T4 sequence (O43186 34-99 R40Q): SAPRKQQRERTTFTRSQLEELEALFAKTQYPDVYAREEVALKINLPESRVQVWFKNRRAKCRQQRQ
T1 sequence (O43186 34-99): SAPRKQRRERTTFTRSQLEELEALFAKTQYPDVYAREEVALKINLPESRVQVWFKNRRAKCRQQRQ
Chain of ARX HD P26L (O35085 326-390 P355L): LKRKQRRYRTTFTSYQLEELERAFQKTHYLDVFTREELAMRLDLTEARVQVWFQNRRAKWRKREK
Chain of CRX HD E4K (O43186 34-99 E42K): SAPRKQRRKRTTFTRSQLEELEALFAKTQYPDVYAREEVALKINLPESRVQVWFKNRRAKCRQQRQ
Chain of CRX HD E4N (O43186 34-99 E42N): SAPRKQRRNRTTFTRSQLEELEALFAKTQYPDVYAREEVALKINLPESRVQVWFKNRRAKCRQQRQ
Chain of CRX HD R3Q (O43186 34-99 R41Q): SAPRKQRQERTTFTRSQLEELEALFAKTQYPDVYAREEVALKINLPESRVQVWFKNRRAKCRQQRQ

Tau with P4Q DNA [1]: 0.792
Molecule: ALX4 homeodomain protein (amino acids 209-274) (from UniProt Q9H161 209-274) (domain or fragment)

Tau with P3Q DNA [2]: 0.9
Molecule: PHOX2B Q46K homeodomain protein (domain or fragment)

Tau with P3K DNA [3]: 0.157
Molecule: PITX3 homeodomain protein (66 amino acid region) (domain or fragment)

Tau with P3Q DNA [4]: 1.27
Molecule: PHOX2B Q46R homeodomain protein (domain or fragment)

Tau with P4Q DNA [5]: 0.29
Molecule: OTP homeodomain protein (amino acids 99-164) (from UniProt Q5XKR4 99-164) (domain or fragment)

B1: P4K (dsDNA)
DNA 1: TGTGTCTTAATCCGGATTAACGCACTTGATAGTGCGGGCGTGGCT
DNA 2: AGCCACGCCCGCACTATCAAGTGCGTTAATCCGGATTAAGACACA
binding result (CRX HD [6]): binds

B2: Q50 monomer (TAATTA) (dsDNA)
DNA 1: CGGGCTAATTAGGCCTAGTGCGGGCGTGGCT
DNA 2: AGCCACGCCCGCACTAGGCCTAATTAGCCCG
binding result (CRX HD K50Q [7]): binds | binding result (CRX HD E4N;K50Q [8]): binds

B3: K50 monomer (TAATCC) (dsDNA)
DNA 1: B2 DNA 1 with T10C, A11C
DNA 2: B2 DNA 2 with T21G, A22G
binding result (CRX HD R2Q [9]): binds | binding result (CRX HD R3Q): binds | binding result (CRX HD E4K): binds

B4: P3K (dsDNA)
DNA 1: TGTGTCTTAATCCGATTAACGCACTTGATAGTGCGGGCGTGGCT
DNA 2: AGCCACGCCCGCACTATCAAGTGCGTTAATCGGATTAAGACACA
binding result (CRX HD R2Q [10]): binds | binding result (CRX HD E4N): binds | binding signal (CRX HD [11]): 8.94 ± 1.78 Tau | binding signal (CRX HD K50Q [12]): 340 ± 161 Tau | binding signal (CRX HD E4N;K50Q [13]): 395 ± 90.1 Tau

B5: P3Q (dsDNA)
DNA 1: B4 DNA 1 with C12T, C13A
DNA 2: B4 DNA 2 with G32T, G33A
binding signal (CRX HD K50Q [12]): 54.6 ± 2.72 Tau | binding signal (CRX HD E4N;K50Q [13]): 112 ± 12.1 Tau | binding signal (ARX HD P26L): ~10 fold decrease in Tau vs WT | binding result (PHOX2B HD R44G): no binding

Reference: publication PMC13530268
